Experimental data from publication PMC9649601 (2022).

Molecular target: ubiquitin conjugating enzyme E2 I (UBE2I), recombinant (UniProt P63279 1-158)
Test: ITC

Sequence of ubiquitin conjugating enzyme E2 I (UBE2I), recombinant (P63279 whole entry): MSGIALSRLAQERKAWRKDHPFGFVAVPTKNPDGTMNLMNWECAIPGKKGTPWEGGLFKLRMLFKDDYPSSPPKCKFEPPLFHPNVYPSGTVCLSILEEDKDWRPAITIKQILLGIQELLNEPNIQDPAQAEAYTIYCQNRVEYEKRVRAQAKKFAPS

Kd: 373 nM
B1: lamin A (LMNA), wild type, recombinant (natural protein)
chain: METPSQRRATRSGAQASSTPLSPTRITRLQEKEDLQELNDRLAVYIDRVRSLETENAGLRLRITESEEVVSREVSGIKAAYEAELGDARKTLDSVAKERARLQLELSKVREEFKELKARNTKKEGDLIAAQARLKDLEALLNSKEAALSTALSEKRTLEGELHDLRGQVAKLEAALGEAKKQLQDEMLRRVDAENRLQTMKEELDFQKNIYSEELRETKRRHETRLVEIDNGKQREFESRLADALQELRAQHEDQVEQYKKELEKTYSAKLDNARQSAERNSNLVGAAHEELQQSRIRIDSLSAQLSQLQKQLAAKEAKLRDLEDSLARERDTSRRLLAEKEREMAEMRARMQQQLDEYQELLDIKLALDMEIHAYRKLLEGEEERLRLSPSPTSQRSRGRASSHSSQTQGGGSVTKKRKLESTESRSSFSQHARTSGRVAVEEVDEEGKFVRLRNKSNEDQSMGNWQIKRQNGDDPLLTYRFPPKFTLKAGQVVTIWAAGAGATHSPPTDLVWKAQNTWGCGNSLRTALINSTGEEVAMRKLVRSVTVVEDDEDEDGDDLLHHHHGSHCSSSGDPAEYNLRSRTVLCGTCGQPADKASASGSGAQVGGPISSGSSASSVTVTRSYRSVGGSGGGSFGDNLVTRSY
